For one substance, percent inhibition of bound biotin-IL-6 results are on record in patent US20170291942A1.

The test concerns the target IL-6 protein (human) (UniProt P05231). The test is described as follows: Luminex based assay, biotin-IL-6 binding to solid phase sIL-6R/gp80.
UniProt P05231, sequence (P05231 30-212 limits assumed): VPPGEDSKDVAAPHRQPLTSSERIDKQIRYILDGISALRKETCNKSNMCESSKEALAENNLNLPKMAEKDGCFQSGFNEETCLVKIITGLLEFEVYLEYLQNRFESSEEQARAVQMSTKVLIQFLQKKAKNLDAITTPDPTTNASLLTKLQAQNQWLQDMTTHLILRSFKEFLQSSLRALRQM

For the substance CLB.IL-6/16 (antibody), the percent inhibition of bound biotin-IL-6 is 62%.
